Results as given in the DeepSol protein solubility set.

Assay: soluble on expression in E. coli; label from the status in PepcDB or PDB records

| Sequence | soluble on expression in E. coli |
| --- | --- |
| MKQGTMNILFFVLKTKLLKNGEAPVLMRITINGDYDDVRIQRSVPLNLWNAAKGCSKGRDRASVALNAYIAELHARALEKHKELVLEQALITPKLILKRVFGKDTEMRTLLGTMREGIKEMETLAGIDYSPVTINRYKNVVKKLQLLIPSYYGKEDVTFHELTPEFIRAFDIYLKTEAGLCRNTIVRYMKCFKKFTNMALAKEWMRKNPFYGYKMEQDETDPVFLTYDELQTVMKKKFTIPRLELVRDVFVFACFTGLAFSDVASLNKENLVQDNLGDWWIRKGRVKLEHRRKASSISNIPLLPVPLAILEKYKEHPTCIKKGCCLPVMCNQKMNSYLKEIADFCGIKKNLTTHVARHTFGTTVTLANNVPLQDVSVMLGHASTRMTQHYARVMNSSLKEAMNTVKERLAQ | not soluble |
| MKQLTILGSTGSIGCSTLDVVRHNPDSFRVIALVAGKNVARMAEQCLEFSPRYAVMDDTSSAEQLKIMLQQHGSRTEVLSGQQAACEMAALDEVGHVMAAIVGAAGLLPTLAAIRAGKTILLANKESLVTCGRLFMDEVKRSNARLLPVDSEHNAIFQSLPQSIQHNLGYADLEQNGVTSILLTGSGGPFRETPMCDLAAMTPDQACRHPNWSMGRKISVDSATMMNKGLEYIEARWLFNASARQMEVLIHPQSVIHSMVRYQDGSVLAQLGEPDMRTPIAHTMAWPNRVTSGAQPLDFCKLSALTFSAPDYQRYPCLKLAMEAFEQGQAATTALNAANEITVAAFLAQQIRFTDIAGLNLAVLERMDLQEPASVEDVLQVDAIAREVARKQVIRLSR | not soluble |
| MKQPEEELQETLTELDDRAVVDYLRHHPEFFIRNAHAVEAMRVPHPVRGTVSLVEWHMARARNHINVLEENMTLLMEQAHANESLFYRLLHLQSRLVAADSLDEMLVRFHRWARDLGLAGATLRLFPDRWRLGAPSRYTHLALNRQAFEPLRIQRLGQSQHYLGPLNGPELLVVLPEAKAVGSVAMSMMGSDGGLGVILFSSRDPHHYQPGQGTQLLQEIALMLPELLERWIKRVLEHHHHHH | not soluble |
| MKQSKEEFIKSEGADFPGKTYVDCVLQHVFDFQRNYLLKDMFQVHKAHIVMLTEENLMKKEEAKFILHALKKVEEIPEEQLLYTEQHEDLFFLVEHLISQEAKSDFVSNMHIGRSRNDMGVTMYRMSLRRYVLRLMEHHLLLQESILQLAADHKETIMPAYTHTQPAQPTTFGHYTLAIYDTMQRDLERMKKTYKLLNQSPMGAAALSTTSFPIKRERVADLLGFTNVIENSYDAVAGADYLLEVSSLLMIMMTNTSRWIHDFLLLATKEYDGIAVARPYVQISSIMPQKRNPVSIEHARAITSSAPGEAFTVFQMIHNTPFGEIVDTEDDLQPYLYKGIEKAIRVFCILNAVIRTMKVEEDTLKRRSYKHAITITDFADVLTKNYGIPFRHAHHAASVIANMSLEQKKELHELCFKDVNIYLQEKFKIQLLEKEWEEIISPEAFIQKRNVYGGPSKKEMERMINNRKELFRKEEEVFEEEKQRILQAENDLNMLASNIIES | not soluble |
| MKRIAFVGSVGAGKTTLFNALQGNYTLARKTLAVEFNDKGDIDTPGEYFSHPRWYHALITTLQDVDMLIYVHGANDPESRLPAGLLDIGVSKRQIAVISKTDMPDADVAATRKLLLETGFEEPIFELNSHDPQSVQQLVDYLASLTKQEEAGEKTHHSELEHHHHHH | soluble |
| MKRIGYARTTIIEDDLKNQLTTLQSFGCDDIFQETFDPQAEISVLDEVEKLLSAGDTLIVCKLHHLGKTTRQLTDFMKMLKEKQVDFVSISEGIDTHLPTGEAYFQLMESLSAMECALIKERTLVGLHKARENGKVGGRPKIDGRTVRKIRALYYENKETIQFISNKCGVSVGTCYKYINLPETDVERLYS | not soluble |
| MKRIRLWGLMAGLLLLLVGCGRAETTGVTKPVTTQGHRYIPTLFFHGWGSSYHAETHMADAIVKAGKTQTIVRAMVAKNGTVTLKGHFRSGDYRPIVEVNFANNRSSDYPTVGRWAKNVVVALQRTYGITSFNMVGHSMGNMAITYYLLANAQNKRLPQLRQQVAIAGHFNGILGMDDSPNQMTLNAAGRPNKLRPAYRQLLGLRRVYPRQQVRVLNIYGDKGDGTHSDGSVSNASSRSLRYLVAARARSYREVKLTGKHAQHSQLHENAQVDRLLIDFLWPTH | not soluble |
| MKRLIVGISGASGAIYGVRLLQVLRDVTDIETHLVMSQAARQTLSLETDFSLREVQALADVTHDARDIAASISSGSFQTLGMVILPCSIKTLSGIVHSYTDGLLTRAADVVLKERRPLVLCVRETPLHLGHLRLMTQAAEIGAVIMPPVPAFYHRPQSLDDVINQTVNRVLDQFAITLPEDLFARWQGA | not soluble |
| MKRLLLIIICTLGILSCGVPKEVTVPDKHLNYKDNIVLYNEKPYTGKVKLKKIAEKEQFEEGYISVKDGKLEGITDFKNDAAKTHFKFDVKSGKFNGEYILKHPLIGDFVMNFENGELKELKGKFPNDINQDLIFDKDGNVNGLIEQGGKQLDFQGGVAVKDTLKVKMFLDTETKQKLVTEVYEGDKLMAREENILLFTVKDFTEELLPVTGLQ | not soluble |
| MKRLLVFLPLLLLACAPKPEAEAPQTTAPLRVQVRTLKAEPGLLTREARASANVVAEKESLVAAGASGRVVRTLPAGTRVRAGEGVVFLDPAPFQEALAQAKLALRQAEENLARAEAQTEGNRKALEAQLAAAEAQLAAAKRRYEEGKALLALGALAPLELKGLEAQYLQAQSAYENAKEALARLEREDDLRLLRLQVEAARLQVQQAERNLKESVVRAPFAGEVVEVYVKEGEFTGAGSRAFRLATTDRLLVKVYLPPERAAALTEDTAFRVRQNGKEVEARLQAKSDLPGQNRLVEVTLRPTGPLLPGAAEVRYPEVLAEGLLLPAGAVRTEDGEAFVYVVEEGRARKRPVRLLAQEGGRAAVAGLEAGEAVVYPVPEGLEDGDLVEVVP | soluble |
| MKRRESSPLISTILGIRYGRCVMGNFSIVIPTYNERDNIVKLVEEINRIVPYNSRILIVDDNSPDGTALILQELNIHNLTVLIRHNERGLGSALRYGISKAIELESDFIVTMDADFSHNPKYLPEMMKIALNENCDLVIGSRYVIGGGIENWSLSRRIISKGANYLFKLVSHSPIMDNTSNYRIYSRRAALLALECDTTNGYEFQICSIFKIIRNNLKIKEYPIIFVDRKTGKSKLNLKEILNWFLYIIRLSLSFLEHHHHHH | not soluble |
| MKSERILVVKTEDFLKEFGEFEGFMRVNFEDFLNFLDQYGFFRERDEAEYDETTKQVIPYVVIMDGDRVLITKRTTKQSEKRLHNLYSLGIGGHVREGDGATPREAFLKGLEREVNEEVDVSLRELEFLGLINSSTTEVSRVHLGALFLGRGKFFSVKEKDLFEWELIKLEELEKFSGVMEGWSKISAAVLLNLFLTQN | not soluble |
| MKSGEKDYSVKEAMIFSQRIAQLSKALWKCVEKDWQQWIKPYDLNINEHHILTIAYHLKGASISEIAKFGVMHVSTAFNFSKKLEERGYLVFSKKEDDKRNTYIEITDKGEELLLRLMEEYDPENNSVFNGALALRNFYGKFPENIELIAILRNIYGQDFIDIFEKSLEDIEENFTESDQKLVKK | not soluble |
| MKSITQLENKKVLVLGLAKSGEAAARLLAKLGAIVTVNDGKAFEENPSAQSLLEEGIKVVCGGHPLELLDENFELMVKNPGIRYDNPMVARALEKEIPVWTEVELAYLVSEAPIIGITGSNGKTTTTTMIADVLNHGGKSGVLSGNIGFPASEVAQSVTNQDTLVMELSSFQLMGIESFHPHIAVITNLMPTHIDYHGSFEEYVAAKWNIQNEMTSDDFIILNFNQDLAKELATQTNAQVVPFSTVEKVDGAYLENGGLYFKGELLMHADELGVPGSHNVENALATIAVAKLSGVSNQAIKETLSSFGGVKHRLQFVDTIDDVKFYNDSKSTNILATQKALSGFDNSKVILIAGGLDRGNEFDELIPDITGLKKMVILGESAPRVKRAADKAGVTYLDAKDVADATRIAFEQASAGDVVLLSPANASWDMYKNFEVRGDEFITTVERLKG | not soluble |
| MKSKLKLHGFNNLTKTLSFNIYDICYAETPQDQQAYVEYINSVYDAERLTRILTDVVDIIGANILNIARQDYDPQGASVTILISEQPVTPTESQIEESPGPLPETILAHLDKSHITVHTYPEIHPVDGIATFRVDIDVSTCGVISPLKALNYLIHKFESDIVTVDYRVRGFTRDVEGKKHFIDHEINSIQNYLSEDTRNGYQMTDVNVYQENLFHTKMLLKQFELDNYLFGDATSNLSAEQREQVTAKVKHEMLEIFYGRNVAV | not soluble |
